Laboratory results from doi:10.1101/2023.05.25.542057 (bioRxiv, 2023).

Target: the molecule itself
Assay: SEC-SAXS

B1: CDAN1-interacting nuclease 1 (CDIN1), full-length, recombinant from bacteria (natural protein)
chain: MILTKAQYDEIAQCLVSVPPTRQSLRKLKQRFPSQSQATLLSIFSQEYQKHIKRTHAKHHTSEAIESYYQRYLNGVVKNGAAPVLLDLANEVDYAPSLMARLILERFLQEHEETPPSKSIINSMLRDPSQIPDGVLANQVYQCIVNDCCYGPLVDCIKHAIGHEHEVLLRDLLLEKNLSFLDEDQLRAKGYDKTPDFILQVPVAVEGHIIHWIESKASFGDECSHHAYLHDQFWSYWNRFGPGLVIYWYGFIQELDCNRERGILLKACFPTNIVTLCHSIA
stoichiometry N: 2
